Experimental data: paper PMC9482650, “Quantitative fragmentomics allow affinity mapping of interactomes” (Nature Communications, 2022)
One block for each binder: values may come before it.

Assays:
Experiment in all cases: holdup assay
Design in all cases: key: below the threshold = too weak to quantify, mostly under pKd 3.1 to 4
APBA1_1, Q02410 = target: T1, APBA1_1, Q02410
T1 sequence (Q02410 651-752, limits assumed, looked up): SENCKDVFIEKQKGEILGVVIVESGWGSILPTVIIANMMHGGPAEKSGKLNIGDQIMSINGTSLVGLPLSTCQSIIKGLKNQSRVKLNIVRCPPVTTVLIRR

APBA2_2, Q99767 = target: T2, APBA2_2, Q99767
T2 sequence (Q99767 654-744, limits assumed, looked up): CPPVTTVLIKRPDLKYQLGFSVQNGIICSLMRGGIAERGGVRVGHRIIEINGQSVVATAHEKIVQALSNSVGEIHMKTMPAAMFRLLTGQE

DFNB31_2, Q9P202 = target: T3, DFNB31_2, Q9P202
T3 sequence (Q9P202 274-371, limits assumed, looked up): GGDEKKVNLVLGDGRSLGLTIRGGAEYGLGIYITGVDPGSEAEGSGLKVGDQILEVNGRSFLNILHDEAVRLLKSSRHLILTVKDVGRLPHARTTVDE

DFNB31_3, Q9P202 = target: T4, DFNB31_3, Q9P202
T4 sequence (Q9P202 811-907, limits assumed, looked up): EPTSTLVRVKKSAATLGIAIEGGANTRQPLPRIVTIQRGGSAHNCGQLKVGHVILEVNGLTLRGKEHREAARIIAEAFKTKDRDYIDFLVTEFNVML

DLG2_2, Q15700 = conditions: plain residues with an end cap or a label only (N-terminal biotin on a linker: ttds)
DLG3_1, Q92796 = target: T5, DLG3_1, Q92796
T5 sequence (Q92796 125-227, limits assumed, looked up): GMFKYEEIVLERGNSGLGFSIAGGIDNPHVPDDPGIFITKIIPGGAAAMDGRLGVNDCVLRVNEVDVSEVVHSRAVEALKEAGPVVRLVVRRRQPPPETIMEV

FRMPD1, Q5SYB0 = target: T6, FRMPD1, Q5SYB0
T6 sequence (Q5SYB0 52-145, limits assumed, looked up): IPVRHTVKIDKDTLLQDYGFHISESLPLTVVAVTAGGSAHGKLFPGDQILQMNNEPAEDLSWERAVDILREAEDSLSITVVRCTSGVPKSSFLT

FRMPD4, Q14CM0 = target: FRMPD4, Q14CM0
GORASP2, Q9H8Y8 = target: GORASP2, Q9H8Y8
GRASP, Q7Z6J2 = target: GRASP, Q7Z6J2
GRIP1_2, Q9Y3R0 = target: T7, GRIP1_2, Q9Y3R0
T7 sequence (Q9Y3R0 145-248, limits assumed, looked up): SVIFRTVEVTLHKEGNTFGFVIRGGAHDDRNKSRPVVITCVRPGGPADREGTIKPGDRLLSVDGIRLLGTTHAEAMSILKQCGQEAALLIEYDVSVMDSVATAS

GRIP2_7, Q9C0E4 = target: GRIP2_7, Q9C0E4
HTRA1, Q92743 = target: HTRA1, Q92743
HTRA4, P83105 = target: T8, HTRA4, P83105
T8 sequence (P83105 378-476, limits assumed, looked up): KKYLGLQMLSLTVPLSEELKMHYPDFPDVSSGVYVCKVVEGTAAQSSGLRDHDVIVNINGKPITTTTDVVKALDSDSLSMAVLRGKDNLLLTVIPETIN

IL16_3, Q14005 = target: IL16_3, Q14005
LIN7A, O14910 = target: T9, LIN7A, O14910
T9 sequence (O14910 103-200, limits assumed, looked up): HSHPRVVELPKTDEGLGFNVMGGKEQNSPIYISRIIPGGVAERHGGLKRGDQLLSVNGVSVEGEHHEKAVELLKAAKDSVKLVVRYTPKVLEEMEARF

LNX1_2, Q8TBB1 = target: LNX1_2, Q8TBB1
MAGI1_1, Q96QZ7 = target: MAGI1_1, Q96QZ7
MAGI2_4, Q86UL8 = conditions: plain residues with an end cap or a label only (N-terminal biotin on a linker: ttds)
MAGI2_6, Q86UL8 = target: MAGI2_6, Q86UL8
MAST2, Q6P0Q8 = target: MAST2, Q6P0Q8
MPP2, Q14168 = target: T10, MPP2, Q14168
T10 sequence (Q14168 180-250, limits assumed, looked up): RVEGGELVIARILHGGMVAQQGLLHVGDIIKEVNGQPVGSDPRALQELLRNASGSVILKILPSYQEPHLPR

PARD3B_1, Q8TEW8 = target: T11, PARD3B_1, Q8TEW8
T11 sequence (Q8TEW8 196-299, limits assumed, looked up): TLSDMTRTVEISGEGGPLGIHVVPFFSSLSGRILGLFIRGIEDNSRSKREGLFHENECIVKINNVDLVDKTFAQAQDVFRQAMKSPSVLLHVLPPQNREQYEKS

SCRIB_1, Q14160 = target: SCRIB_1, Q14160
SNTA1, Q13424 = target: T12, SNTA1, Q13424; conditions: plain residues with an end cap or a label only (N-terminal biotin on a linker: ttds)
T12 sequence (Q13424 82-180, limits assumed, looked up): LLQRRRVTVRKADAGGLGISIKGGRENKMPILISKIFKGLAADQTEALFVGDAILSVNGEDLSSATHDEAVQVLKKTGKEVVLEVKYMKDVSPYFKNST

[1] = plain residues with an end cap or a label only (N-terminal biotin on a linker: ttds)
[2] = plain residues with an end cap or a label only (N-terminal biotin on a linker: ahx)

Chain of MAGI1_1, Q96QZ7 (Q96QZ7 1-106): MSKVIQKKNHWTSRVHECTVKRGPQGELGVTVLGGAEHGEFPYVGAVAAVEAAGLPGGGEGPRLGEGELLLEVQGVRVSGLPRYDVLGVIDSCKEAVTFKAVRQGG
Chain of GRIP2_7, Q9C0E4 (Q9C0E4 934-1023): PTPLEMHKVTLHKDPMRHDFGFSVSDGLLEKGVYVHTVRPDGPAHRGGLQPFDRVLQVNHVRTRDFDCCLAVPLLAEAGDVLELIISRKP
Chain of FRMPD4, Q14CM0 (Q14CM0 67-160): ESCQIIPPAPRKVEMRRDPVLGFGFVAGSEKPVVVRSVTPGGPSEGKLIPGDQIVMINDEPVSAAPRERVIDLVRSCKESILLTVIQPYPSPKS
Chain of HTRA1, Q92743 (Q92743 360-477): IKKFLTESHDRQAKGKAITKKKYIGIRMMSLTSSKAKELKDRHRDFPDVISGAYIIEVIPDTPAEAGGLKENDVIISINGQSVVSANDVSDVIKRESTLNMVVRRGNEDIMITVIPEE
Chain of IL16_3, Q14005 (Q14005 1107-1207): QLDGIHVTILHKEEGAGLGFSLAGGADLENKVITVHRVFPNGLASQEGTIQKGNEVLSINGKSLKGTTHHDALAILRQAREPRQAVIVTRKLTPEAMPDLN
Chain of MAGI2_6, Q86UL8 (Q86UL8 1141-1229): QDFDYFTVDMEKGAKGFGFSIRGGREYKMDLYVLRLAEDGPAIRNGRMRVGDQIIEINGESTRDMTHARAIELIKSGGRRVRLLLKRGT
Chain of SCRIB_1, Q14160 (Q14160 718-814): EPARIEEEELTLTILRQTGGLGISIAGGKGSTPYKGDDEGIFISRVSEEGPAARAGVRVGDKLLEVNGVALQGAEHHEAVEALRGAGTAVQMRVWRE
Chain of GRASP, Q7Z6J2 (Q7Z6J2 96-193): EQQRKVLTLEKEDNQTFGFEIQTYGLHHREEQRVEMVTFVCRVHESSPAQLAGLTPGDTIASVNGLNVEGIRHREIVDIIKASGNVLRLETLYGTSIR
Chain of LNX1_2, Q8TBB1 (Q8TBB1 371-470): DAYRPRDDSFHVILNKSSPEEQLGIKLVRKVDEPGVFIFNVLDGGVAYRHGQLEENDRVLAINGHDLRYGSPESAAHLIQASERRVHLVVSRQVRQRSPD
Chain of MAST2, Q6P0Q8 (Q6P0Q8 1099-1202): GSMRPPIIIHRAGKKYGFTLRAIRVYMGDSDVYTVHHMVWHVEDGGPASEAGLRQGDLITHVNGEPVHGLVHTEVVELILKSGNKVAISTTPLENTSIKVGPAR
Chain of DLG2_2, Q15700 (Q15700 189-283): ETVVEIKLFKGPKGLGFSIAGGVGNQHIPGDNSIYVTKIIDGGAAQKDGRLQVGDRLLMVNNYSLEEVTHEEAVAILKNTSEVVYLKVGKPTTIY
Chain of MAGI2_4, Q86UL8 (Q86UL8 772-865): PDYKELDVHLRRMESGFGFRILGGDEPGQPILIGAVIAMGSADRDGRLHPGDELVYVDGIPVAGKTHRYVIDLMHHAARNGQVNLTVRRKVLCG

pKd (APBA1_1, Q02410; [1]): below the threshold
pKd (APBA2_2, Q99767; [1]): below the threshold
pKd (DFNB31_2, Q9P202; [1]): 3.51
pKd (DFNB31_3, Q9P202; [1]): 3.69
pKd (DLG2_2, Q15700): 4.23
pKd (DLG3_1, Q92796; [1]): below the threshold
pKd (FRMPD1, Q5SYB0; [1]): 3.61
pKd (FRMPD4, Q14CM0; [1]): 3.55
pKd (GORASP2, Q9H8Y8; [1]): 4.23
pKd (GRASP, Q7Z6J2; [1]): 4.01
pKd (GRIP1_2, Q9Y3R0; [1]): 3.72
pKd (GRIP2_7, Q9C0E4; [1]): 3.63
pKd (HTRA1, Q92743; [1]): 4.23
pKd (HTRA4, P83105; [1]): 3.6
pKd (IL16_3, Q14005; [1]): below the threshold
pKd (LIN7A, O14910; [1]): below the threshold
pKd (LNX1_2, Q8TBB1; [1]): 3.67
pKd (MAGI1_1, Q96QZ7; [1]): below the threshold
pKd (MAGI2_4, Q86UL8): 3.77
pKd (MAGI2_6, Q86UL8; [1]): below the threshold
pKd (MAST2, Q6P0Q8; [1]): 3.89
pKd (MPP2, Q14168; [1]): below the threshold
pKd (PARD3B_1, Q8TEW8; [1]): 3.68
pKd (SCRIB_1, Q14160; [1]): 3.84
pKd (SNTA1, Q13424): 4.08
B1: PLCB4, Q15147 (peptide)
chain: EMDRRPATVV

pKd (APBA1_1, Q02410; [2]): below the threshold
pKd (APBA2_2, Q99767; [2]): below the threshold
pKd (DFNB31_2, Q9P202; [2]): below the threshold
pKd (DFNB31_3, Q9P202; [2]): below the threshold
pKd (DLG3_1, Q92796; [2]): below the threshold
pKd (FRMPD1, Q5SYB0; [2]): below the threshold
pKd (FRMPD4, Q14CM0; [2]): below the threshold
pKd (GORASP2, Q9H8Y8; [2]): below the threshold
pKd (GRASP, Q7Z6J2; [2]): 3.94
pKd (GRIP1_2, Q9Y3R0; [2]): below the threshold
pKd (GRIP2_7, Q9C0E4; [2]): below the threshold
pKd (HTRA1, Q92743; [2]): 4.32
pKd (HTRA4, P83105; [2]): below the threshold
pKd (IL16_3, Q14005; [2]): below the threshold
pKd (LIN7A, O14910; [2]): below the threshold
pKd (LNX1_2, Q8TBB1; [2]): below the threshold
pKd (MAGI1_1, Q96QZ7; [2]): below the threshold
pKd (MAGI2_6, Q86UL8; [2]): below the threshold
pKd (MAST2, Q6P0Q8; [2]): 4.25
pKd (MPP2, Q14168; [2]): below the threshold
pKd (PARD3B_1, Q8TEW8; [2]): below the threshold
pKd (SCRIB_1, Q14160; [2]): below the threshold
B2: GRIN1, Q05586;Q05586-2 (peptide)
chain: LSDPSVSTVV

pKd (APBA1_1, Q02410; [1]): below the threshold
pKd (APBA2_2, Q99767; [1]): below the threshold
pKd (DFNB31_2, Q9P202; [1]): below the threshold
pKd (DFNB31_3, Q9P202; [1]): below the threshold
pKd (DLG2_2, Q15700): below the threshold
pKd (DLG3_1, Q92796; [1]): below the threshold
pKd (FRMPD1, Q5SYB0; [1]): below the threshold
pKd (FRMPD4, Q14CM0; [1]): below the threshold
pKd (GORASP2, Q9H8Y8; [1]): below the threshold
pKd (GRASP, Q7Z6J2; [1]): 4.39
pKd (GRIP1_2, Q9Y3R0; [1]): below the threshold
pKd (GRIP2_7, Q9C0E4; [1]): below the threshold
pKd (HTRA1, Q92743; [1]): below the threshold
pKd (HTRA4, P83105; [1]): below the threshold
pKd (IL16_3, Q14005; [1]): below the threshold
pKd (LIN7A, O14910; [1]): below the threshold
pKd (LNX1_2, Q8TBB1; [1]): below the threshold
pKd (MAGI1_1, Q96QZ7; [1]): below the threshold
pKd (MAGI2_4, Q86UL8): below the threshold
pKd (MAGI2_6, Q86UL8; [1]): below the threshold
pKd (MAST2, Q6P0Q8; [1]): 3.82
pKd (MPP2, Q14168; [1]): below the threshold
pKd (PARD3B_1, Q8TEW8; [1]): below the threshold
pKd (SCRIB_1, Q14160; [1]): below the threshold
pKd (SNTA1, Q13424): below the threshold
B3: PPP1R13L, Q8WUF5 (peptide)
chain: PRVKPQRSKV
